These results are taken from patent US20050287158A1, “The p65 subunit of nf-kb for the radiosensitization of cells” (Georgetown University, priority 2002, published 2005).

Assay [1] has as its system endogenous p65 mRNA. The experiment in a line: Northern blot analysis of endogenous p65 mRNA in clonal cells expressing p65DN. The settings on record: cell clones expressing p65DN. It counts as cell-based, human. The method, then:
(§1) Cell culture, Transfection and Clonal Selections: Human head and neck squamous carcinoma cells (SCC-35) were used for the experiments described. These cells have been previously characterized as resistant to ionizing radiation based on clinical and radiobiological parameters (30). Cells were cultured in 10 cm^2 dishes and maintained in Dulbeco modified Eagle's medium supplemented with 10% fetal bovine serum, 2 mML-amino acids. Cells were passaged routinely at 80-90% confluence and checked for mycoplasma contamination at three-month intervals. […] G418 resistant clonal cells were then subcloned and maintained in the complete medium containing G418 (400 μg/ml) as described above. Drug resistant colonies were pooled or subcloned for future studies.
RNA was electrophoresed on a 1% formaldehyde-agarose gel and then transferred to the nitrocellulose membrane, followed by UV cross-linking. The membrane was hybridized with γ-^32P-dATP labeled cDNA probes for 16 h, washed, and autoradiographed.
To investigate the effects of targeting p65 as a means of disrupting NF-κB activation, we transfected radioresistant human squamous carcinoma SCC-35 cells with an expression vector encoding amino acids 1 to 84 of human p65 (p65DN). The resulting G418-resistant colonies were isolated and analyzed for expression of p65DN and endogenous p65. […]

For assay [2], the system named is endogenous p65 protein. The experiment in a line: Immunoblot analysis of endogenous p65 protein in DN/CL6 cells. The settings on record: DN/CL6 cells (SCC-35 clone expressing p65DN). It counts as cell-based, human. The method, then: as §1
Western blotting: Following exposure to γ-radiation (1-20 Gy) (a ^137Cs J. L. Shepherrd Mark 1 laboratory irradiator) or TNF-α (10 ng/ml) treatment, cell extracts were prepared by using lysis buffer (50 mM Tris-Cl, pH 7.5, 100 mM NaCl, 0.1% NP40, 1 mM PMSF, 10 mg/ml leupeptin, 1 mg/ml aprotinin, 1 mg/ml perpstatin), followed by centrifugation at 12,000×g for 20 minutes. Protein quantities were determined using the BCA protein assay kit (Pierce). Equal amounts of cell extracts were analyzed on 10% SDS-polyacrylamide gels. […]

Assay [3] deals with IκB-α. The experiment in a line: Immunoblot analysis of IR-induced IκB-α Ser32 phosphorylation/degradation and nuclear p65. It counts as cell-based, human. The settings on record: DN/CL6 cells. On the procedure: (§2) Western blotting: Following exposure to γ-radiation (1-20 Gy) (a ^137Cs J. L. Shepherrd Mark 1 laboratory irradiator) or TNF-α (10 ng/ml) treatment, cell extracts were prepared by using lysis buffer (50 mM Tris-Cl, pH 7.5, 100 mM NaCl, 0.1% NP40, 1 mM PMSF, 10 mg/ml leupeptin, 1 mg/ml aprotinin, 1 mg/ml perpstatin), followed by centrifugation at 12,000×g for 20 minutes. Protein quantities were determined using the BCA protein assay kit (Pierce). Equal amounts of cell extracts were analyzed on 10% SDS-polyacrylamide gels. The transblotted membranes were blocked in PBS containing 5% dry milk for 1 h and probed with specific antibodies, followed by washing with PBST. The membrane was then incubated with horse-radish peroxidase conjugated secondary antibodies for 30-60 minutes washed with PBST, and developed by using the ECL-chemiluminescence detection system (Amersham). Equal loading and transfer of proteins among lanes were confirmed by immunoblot analysis with antibodies to β-actin (Amersham) or by staining the membrane with Ponceau S. Other antibodies used in this study include anti-NF-κB(p65), IκB-α caspases-3, (Santa Cruz Biotechnology, Santa Cruz, Calif.) and PARP (Enzyme Synthesis, Dublin, Calif.).
IκB-α binds to both subunits of the p50-p65 heterodimer. We therefore next determined the effect of p65DN expression on IR-induced phosphorylation and subsequent degradation of IκB-αin the cytoplasm. […] This conclusion is consistent with the previous observation that amino acids 1 to 101 of p65 are required for its binding to IκB-α (36). We therefore propose that p65DN interferes with the inhibitory function of IκB-α by binding to this protein in both the cytoplasm and nucleus.

The subject of assay [4] is NF-κB. Put plainly: NF-κB luciferase reporter assay (pNF-κB-Luc). Conditions: DN/CL6 vs SCC-35 cells; IR 20 Gy or TNF-α 10 ng/ml, 6 h. In kind it is cell-based, human. On the procedure:
Luciferase Reporter Assay: Cells were transiently transfected for 16 h with 5 μg/ml of plasmid DNA by using Lipofectin (Gibco-BRL). Following treatment with ionizing radiation (20 Gy) or TNF-α (10 ng/ml), cells were lysed at 6 h in Reporter Lysis Buffer (Promega), and centrifuged for 2 min at 14,000×g.
To determine whether p65DN inhibits the activation of NF-κB, we transfected DN/CL6 cells with the NF-κB-specific luciferase reporter vector pNF-κB-Luc and then examined the effect of IR or TNF-α on luciferase activity. The stimulatory effects of these agents on NF-κB activity were reduced by a factor of 2 to 3 in DN/CL6 cells compared with those apparent in SCC-35 cells (FIG. 2B). Expression of p65DN thus inhibited NF-κB activation.

Assay [5] relates to SCC-35 cells. Put plainly: Radiation (clonogenic) survival assay. The settings on record: DN/CL6 cells. In kind it is cell-based, human. The method, then:
Radiation survival assay: Clonogenic dose response was determined as previously described (32). Briefly, exponentially growing cells were plated in T-25 flasks and exposed to graded doses of ionizing radiation in a ^137Cs J. L. Shepherrd Mark 1 laboratory irradiator with a dose accuracy of ±5%. Physics support for calibration and quality assurance was provided for all experimental protocols. Colony counts were fit to single hit multitarget (SHMT) and the linear quadratic (L-Q) models (33). Data points were obtained from two to three independent experiments in triplicates for each experiment.
Impaired regulation of NF-κB in certain cell types is associated with intrinsic cellular radiosensitivity (14-16). To examine the role of NF-κB in determining cell sensitivity to radiation, we performed clonogenic survival assays after exposure of SCC-35 and DN/CL6 cells to graded doses of γ-radiation (FIG. 3). The sensitivity of DN/CL6 cells to IR was greater than that of the parental SCC-35 cells. According to the single-hit multitarget model (33), D0 values were determined to be 1.9 Gy (with α=0.16 and β=0.02) for SCC-35 cells and 1.2 Gy (with α=0.11 and β=0.06) for DN/CL6 cells. Because of the potential pitfalls of clonal heterogeneity associated with determination of radiation sensitivity in a clonal cell population, we also performed survival experiments with pooled transfected clones.

The test system of assay [6] is SCC-35 cells. The experiment in a line: Apoptotic index after γ-radiation. In kind it is cell-based, human. The settings on record: DN/CL6 cells. The text has this:
Apoptotic Index: Adherent and floating cells were collected at various times after exposure to various doses (1-20 Gy) of gamma radiation (a ^137Cs J. L. Shepherd Mark 1laboratory irradiator) and stained with acridine-orange and ethidium bromide (14). About 600 cells (˜100 cells per field) were scored for the aberrant chromosome organizations under flourescence microscopy. The apoptotic cells=(total number of cells with apoptotic nuclei/total number of cells counted)×100. All values represent the mean±SE of the experiments. All experiments were performed more than three times.
Activation of NF-κB contributes to the protection of many cell types from apoptotic cell death induced by DNA-damaging agents. However, under certain conditions and in certain cell types, activation of NF-κB induces apoptosis (37). Given that clonogenic survival analysis provides a measure of all types of cell death, we next determined the effect of p65DN expression on IR-induced apoptosis. IR induced a dose-dependent increase in the percentage of both SCC-35 and DN/CL6 cells characterized as apoptotic 48 h after irradiation (FIG. 4A). However, whereas the maximum proportion of apoptotic cells was 8% (evident at 20 Gy) for SCC-35 cells, confirming that apoptosis is not a major pathway of cell death in these cells, the maximum apoptotic index was 14% for DN/CL6 cells. The baseline apoptotic index for both cell lines was <1%.

For assay [7], the system named is PARP. Put plainly: PARP cleavage by immunoblot after γ-radiation. In kind it is cell-based, human. The settings on record: DN/CL6 cells. The method, then: as §2, with “Calif.). […]” for “Calif.).”
For assay [8], the target named is T1, caspase-3 (Homo sapiens, UniProt P42574).
T1 construct: endogenous in cells; host or cells: lysates of SCC-35 and DN/CL6 cells after 5 Gy of IR
T1 sequence (P42574 29-175 limits assumed): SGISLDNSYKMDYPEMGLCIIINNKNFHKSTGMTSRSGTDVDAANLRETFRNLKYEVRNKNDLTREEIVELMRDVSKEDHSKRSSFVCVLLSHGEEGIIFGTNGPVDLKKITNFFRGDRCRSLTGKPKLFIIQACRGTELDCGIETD
The experiment in a line: Caspase-3 activity, fluorogenic substrate assay after IR. It counts as cell-based. The settings on record: DN/CL6 cells, IR 5 Gy. On the procedure: Measurement of caspase activities—The activity of caspases-3 was assayed fluorometrically with specific fluorogenic substrates: MOCAc-Asp-Glu-Val-Asp-Ala-Pro-Lys(DNP)-NH2 (Peptide Institute, Osaka, Japan) (34). Cell extracts (60 μg of protein) were incubated for 1 h at 37° C. with 600 nM substrate in a reaction mixture (500 μl) containing 10 mM Hepes-NaOH (pH 7.4), 40 mM P-glycerophosphate, 50 mM NaCl, 2 mM MgCl2, 5 mM EGTA, 1 mM DTT, 2 mM ATP, 10 mM creatine phosphate, and creatine kinase (50 μg/ml). The fluorescence of the cleaved substrates was measured with a Hitachi F-4500 spectrophotometer at excitation and emission wavelengths, respectively, of 328 and 393 nm for MOCAc-DEVDAPK(DNP)-NH2.
The nuclear enzyme poly(ADP-ribose) polymerase (PARP), which plays an important role in the repair of DNA damage and in maintenance of genomic integrity (38, 39), is specifically cleaved between its NH2-terminal DNA-binding domain and its multifunctional COOH-terminal domain by caspase-3 or a caspase-3—like protease early during the execution phase of apoptosis (40). We therefore examined the effects of p65DN on both the cleavage of PARP and caspase-3 activity. […] Exposure to 5 Gy of γ-radiation induced a substantial increase in PARP cleavage within 48 h in DN/CL6 cells, whereas cleavage of this enzyme remained barely detectable at 72 h in SCC-35 cells (FIG. 4C).

B1: p65DN: dominant negative fragment, amino acids 1 to 84 of human p65 (RelA), expressed from vector pCR3.1 in SCC-35 cells (clone DN/CL6) (protein)
chain: MDELFPLIFPAEPAQASGPYVEIIEQPKQRGMRFRYKCEGRSAGSIPGERSTDTTKTHPTIKINGYTGPGTVRISLVTKDPPHR
For the molecule B1, in assay [1], the “amount of endogenous p65 mRNA compared with parental SCC-35 cells” value was “reduced”. The “reduction of the amount of endogenous p65 protein compared with parental SCC-35 cells” value in assay [2] is given as 75%. Moreover, the “amount of p65 in the nucleus after irradiation” value in assay [3] (IR) is “decrease”. Also, the “IR-induced phosphorylation of IκB-α on Ser32” value in assay [3] (at 3 h after irradiation) is reported as “remained markedly increased”. Further, the “time after irradiation without detectable degradation of IκB-α” value in assay [3] (parental cells degraded within 1 h) was “up to 3 h”. Besides, the “factor of reduction of stimulatory effects of IR or TNF-α on NF-κB (luciferase) activity” value in assay [4] was in the range of 2 to 3. In assay [5] (clonogenic survival fit), this molecule registered a α of 0.11 and a β of 0.06. The molecule further gave a D0 in assay [5] (single-hit multitarget model, graded γ-radiation doses) of 1.2 Gy. Further, the “time at which substantial increase in apoptotic index was apparent” value in assay [6] (5 Gy γ-radiation) is reported as 24 h. In assay [6] (48 h after irradiation, 2-20 Gy), this molecule came in with a maximum apoptotic index of 14%. Further, the baseline apoptotic index in assay [6] (no irradiation) is less than 1%. In addition, the “time to substantial increase in PARP cleavage” value in assay [7] (5 Gy γ-radiation) is given as no more than 48 h. In addition, the “γ-radiation dose resulting in PARP cleavage” value in assay [7] (data not shown) is given as no more than 2 Gy. Besides, in assay [8], the “IR-induced activation of caspase-3 compared with SCC-35 cells” value is “earlier and more pronounced activation”.
